Results reported in the supplement of paper PMC11136658.

Tested on: peptide library, one residue held at a place counted from the Y acceptor
Experiment: relative phosphorylation of the sub-library (ratio to the mean residue at this position); higher = residue favoured
Procedure, shortened: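 Peptide library mixtures, biotinylated and centred on Tyr, each fixed one residue at one position from −5 to +5. Purified recombinant kinases were incubated with them for 90 min in 384-well plates alongside 50 μM ATP and γ-32P-ATP, and the captured, rinsed peptides on streptavidin membranes were measured by phosphorimaging and ImageQuant. Normalization divided each position's intensities by the sum of its 18 randomized residues (16 for the Ser/Thr-free library) and multiplied by that number, so that values give phosphorylation relative to the mean randomized residue.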

Sequence of MERTK, construct: aa578-872, human (Q12866 578-872, looked up): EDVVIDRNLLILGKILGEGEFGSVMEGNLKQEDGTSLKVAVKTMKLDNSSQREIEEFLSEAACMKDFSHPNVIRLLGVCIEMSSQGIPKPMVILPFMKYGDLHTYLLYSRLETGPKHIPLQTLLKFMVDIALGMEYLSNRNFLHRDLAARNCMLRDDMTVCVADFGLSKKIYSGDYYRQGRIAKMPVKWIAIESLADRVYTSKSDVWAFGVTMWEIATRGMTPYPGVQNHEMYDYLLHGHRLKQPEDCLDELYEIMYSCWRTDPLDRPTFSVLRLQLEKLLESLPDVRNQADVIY

MERTK, construct: aa578-872, human (from UniProt Q12866)
relative phosphorylation
Conditions	at +1	at +2	at +3	at +4	at +5	at -1	at -2	at -3	at -4	at -5
A fixed	2.07	0.87	0.578	0.92	1.15	0.711	1.06	1.01	1.28	1.1
D fixed	0.89	0.601	0.483	0.962	0.839	0.591	0.967	1.27	1.12	0.979
E fixed	1.69	1.01	0.426	1.27	0.786	0.468	1.28	1.55	1.44	0.974
F fixed	1.01	1.64	1.93	1.14	0.565	1.75	0.655	0.836	0.595	1.03
G fixed	0.859	0.321	0.63	1.37	1.61	0.299	1.63	1.28	1.46	1.31
H fixed	0.791	0.687	0.848	1.12	1.01	1.4	0.989	0.875	0.891	0.994
I fixed	0.708	1.34	1.58	0.549	0.621	2.37	0.533	0.482	0.84	0.889
K fixed	0.25	0.594	0.254	0.822	0.996	0.436	0.948	0.746	0.911	1.05
L fixed	0.831	1.4	2.13	0.799	0.745	2.69	0.777	0.863	1.02	0.993
M fixed	1.4	1.2	1.64	1.09	0.917	1.14	0.68	0.967	0.968	1
N fixed	0.447	0.768	0.465	0.76	0.879	0.842	1.26	1.21	0.926	1.13
P fixed	0.172	0.684	1.17	1.2	2.65	0.481	1.18	1.32	1.25	1.24
Q fixed	1.04	0.695	0.72	0.962	0.81	0.63	1.19	0.953	1.16	1.09
R fixed	0.353	0.679	0.392	1.07	0.991	0.439	1.09	0.775	1.2	1.13
S fixed	1.33	0.725	0.562	0.926	1.08	0.517	1.34	1.16	0.807	0.783
T fixed	1.3	0.973	0.838	1	0.97	0.939	1.1	1.17	0.667	0.874
V fixed	1.53	1.33	1.55	0.904	0.756	1.38	0.842	0.803	0.866	0.862
W fixed	1.34	2.47	1.8	1.14	0.608	0.916	0.484	0.743	0.594	0.564
pThr fixed	1.89	1.18	0.3	0.633	0.568	0.718	0.915	1.1	0.901	0.902
pTyr fixed	1.96	2.62	0.613	0.678	0.61	2.26	1.19	1.46	1.13	0.957
